Laboratory results taken from the supplement of paper PMC11316812.
± gives the standard deviation of the averaged measurements.

Legend:
hTERT-HMEC = experiment: percentage of EdU-negative (G0-arrested) nuclei per well, 72 h; higher = more G0 arrest; settings: reference: sequence is the full UniProt precursor, the tested protein was the secreted form or ectodomain
MCF7 = experiment: as above; settings: reference: sequence is the full UniProt precursor, the tested protein was the secreted form or ectodomain
[1] = protein concentration 0.0225 µM
[2] = protein concentration 0.03125 µM
[3] = protein concentration 0.3125 µM
[4] = protein concentration 0.0111429 µM
[5] = protein concentration 0.111429 µM
[6] = protein concentration 0.00839 µM
[7] = protein concentration 0.0839 µM
[8] = protein concentration 0.0357143 µM
[9] = protein concentration 0.357143 µM
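Also: secreted proteins added to cultured cells, EdU pulse at the end, nuclei found by Hoechst imaging, EdU status from nuclear versus surrounding ring intensity ratio, PBS as neutral control.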

Sequence: MAAEPLTELEESIETVVTTFFTFARQEGRKDSLSVNEFKELVTQQLPHLLKDVGSLDEKMKSLDVNQDSELKFNEYWRLIGELAKEIRKKKDLKIRKK
- percentage of EdU-negative (hTERT-HMEC; [1]): 4.78 ± 0.24%
- percentage of EdU-negative (hTERT-HMEC; protein concentration 0.225 µM): 5.02 ± 0.53%
- percentage of EdU-negative (MCF7; [1]): 27.3 ± 1.9%
- percentage of EdU-negative (MCF7; protein concentration 0.225 µM): 25.4 ± 0.45%

Sequence: MEMFQGLLLLLLLSMGGTWASREMLRPRCRPINATLAVEKEGCPVCITVNTTICAGYCPTMTRVLQGVLPALPQVVCNYRDVRFESIRLPGCPRGVNPVVSYAVALSCQCALCRRSTTDCGGPKDHPLTCDDPRFQASSSSKAPPPSLPSPSRLPGPSDTPILPQ
- percentage of EdU-negative (hTERT-HMEC; [2]): 5.61 ± 0.69%
- percentage of EdU-negative (hTERT-HMEC; [3]): 5.26 ± 0.82%
- percentage of EdU-negative (MCF7; [2]): 24.4 ± 2.5%
- percentage of EdU-negative (MCF7; [3]): 25 ± 1%

Sequence: MRKELQLSLSVTLLLVCGFLYQFTLKSSCLFCLPSFKSHQGLEALLSHRRGIVFLETSERMEPPHLVSCSVESAAKIYPEWPVVFFMKGLTDSTPMPSNSTYPAFSFLSAIDNVFLFPLDMKRLLEDTPLFSWYNQINASAERNWLHISSDASRLAIIWKYGGIYMDTDVISIRPIPEENFLAAQASRYSSNGIFGFLPHHPFLWECMENFVEHYNSAIWGNQGPELMTRMLRVWCKLEDFQEVSDLRCLNISFLHPQRFYPISYREWRRYYEVWDTEPSFNVSYALHLWNHMNQEGRAVIRGSNTLVENLYRKHCPRTYRDLIKGPEGSVTGELGPGNK [Q9UNA3]
- percentage of EdU-negative (hTERT-HMEC; [4]): 4.541 ± 0.041%
- percentage of EdU-negative (hTERT-HMEC; [5]): 5.48 ± 1.1%
- percentage of EdU-negative (MCF7; [4]): 26.4 ± 0.46%
- percentage of EdU-negative (MCF7; [5]): 27.4 ± 2.4%

Sequence: MRRLLLVTSLVVVLLWEAGAVPAPKVPIKMQVKHWPSEQDPEKAWGARVVEPPEKDDQLVVLFPVQKPKLLTTEEKPRGQGRGPILPGTKAWMETEDTLGHVLSPEPDHDSLYHPPPEEDQGEERPRLWVMPNHQVLLGPEEDQDHIYHPQ [Q96NZ9]
- percentage of EdU-negative (hTERT-HMEC; protein concentration 0.013 µM): 4.69 ± 0.15%
- percentage of EdU-negative (hTERT-HMEC; protein concentration 0.13 µM): 5.48 ± 0.53%
- percentage of EdU-negative (MCF7; protein concentration 0.013 µM): 23.14 ± 0.14%
- percentage of EdU-negative (MCF7; protein concentration 0.13 µM): 27.38 ± 0.25%

Sequence: MLPLWTLSLLLGAVAGKEVCYERLGCFSDDSPWSGITERPLHILPWSPKDVNTRFLLYTNENPNNFQEVAADSSSISGSNFKTNRKTRFIIHGFIDKGEENWLANVCKNLFKVESVNCICVDWKGGSRTGYTQASQNIRIVGAEVAYFVEFLQSAFGYSPSNVHVIGHSLGAHAAGEAGRRTNGTIGRITGLDPAEPCFQGTPELVRLDPSDAKFVDVIHTDGAPIVPNLGFGMSQVVGHLDFFPNGGVEMPGCKKNILSQIVDIDGIWEGTRDFAACNHLRSYKYYTDSIVNPDGFAGFPCASYNVFTANKCFPCPSGGCPQMGHYADRYPGKTNDVGQKFYLDTGDASNFARWRYKVSVTLSGKKVTGHILVSLFGNKGNSKQYEIFKGTLKPDSTHSNEFDSDVDVGDLQMVKFIWYNNVINPTLPRVGASKIIVETNVGKQFNFCSPETVREEVLLTLTPC
- percentage of EdU-negative (hTERT-HMEC; [2]): 4.88 ± 0.32%
- percentage of EdU-negative (hTERT-HMEC; [3]): 5.95 ± 0.29%
- percentage of EdU-negative (MCF7; [2]): 22.6 ± 0.74%
- percentage of EdU-negative (MCF7; [3]): 24.8 ± 1.1%

Sequence: MAGLTAAAPRPGVLLLLLSILHPSRPGGVPGAIPGGVPGGVFYPGAGLGALGGGALGPGGKPLKPVPGGLAGAGLGAGLGAFPAVTFPGALVPGGVADAAAAYKAAKAGAGLGGVPGVGGLGVSAGAVVPQPGAGVKPGKVPGVGLPGVYPGGVLPGARFPGVGVLPGVPTGAGVKPKAPGVGGAFAGIPGVGPFGGPQPGVPLGYPIKAPKLPGGYGLPYTTGKLPYGYGPGGVAGAAGKAGYPTGTGVGPQAAAAAAAKAAAKFGAGAAGVLPGVGGAGVPGVPGAIPGIGGIAGVGTPAAAAAAAAAAKAAKYGAAAGLVPGGPGFGPGVVGVPGAGVPGVGVPGAGIPVVPGAGIPGAAVPGVVSPEAAAKAAAKAAKYGARPGVGVGGIPTYGVGAGGFPGFGVGVGGIPGVAGVPGVGGVPGVGGVPGVGISPEAQAAAAAKAAKYGAAGAGVLGGLVPGAPGAVPGVPGTGGVPGVGTPAAAAAKAAAKAAQFGLVPGVGVAPGVGVAPGVGVAPGVGLAPGVGVAPGVGVAPGVGVAPGIGPGGVAAAAKSAAKVAAKAQLRAAAGLGAGIPGLGVGVGVPGLGVGAGVPGLGVGAGVPGFGAGADEGVRRSLSPELREGDPSSSQHLPSTPSSPRVPGALAAAKAAKYGAAVPGVLGGLGALGGVGIPGGVVGAGPAAAAAAAKAAAKAAQFGLVGAAGLGGLGVGGLGVPGVGGLGGIPPAAAAKAAKYGAAGLGGVLGGAGQFPLGGVAARPGFGLSPIFPGGACLGKACGRKRK [F8WAH6]
- percentage of EdU-negative (hTERT-HMEC; [6]): 4.54 ± 0.69%
- percentage of EdU-negative (hTERT-HMEC; [7]): 6.95 ± 0.57%
- percentage of EdU-negative (MCF7; [6]): 26.3 ± 0.31%
- percentage of EdU-negative (MCF7; [7]): 25.1 ± 0.57%

Sequence: MNRFLLLMSLYLLGSARGTSSQPNELSGSIDHQTSVQQLPGEFFSLENPSDAEALYETSSGLNTLSEHGSSEHGSSKHTVAEHTSGEHAESEHASGEPAATEHAEGEHTVGEQPSGEQPSGEHLSGEQPLSELESGEQPSDEQPSGEHGSGEQPSGEQASGEQPSGEHASGEQASGAPISSTSTGTILNCYTCAYMNDQGKCLRGEGTCITQNSQQCMLKKIFEGGKLQFMVQGCENMCPSMNLFSHGTRMQIICCRNQSFCNKI
- percentage of EdU-negative (hTERT-HMEC; [8]): 6.06 ± 0.83%
- percentage of EdU-negative (hTERT-HMEC; [9]): 9.78 ± 0.68%
- percentage of EdU-negative (MCF7; [8]): 24.76 ± 0.1%
- percentage of EdU-negative (MCF7; [9]): 27.1 ± 1.2%
